In paper PMC4558366:

Columns and labels:
Experiment in all cases: ITC
[1] = biological target: T1, UHRF1_(647-687) K659E (human), Q96T88
T1 chain: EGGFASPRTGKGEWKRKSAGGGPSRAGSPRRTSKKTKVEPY

[2] = biological target: T2, UHRF1_(600-687) (human), Q96T88
T2 chain: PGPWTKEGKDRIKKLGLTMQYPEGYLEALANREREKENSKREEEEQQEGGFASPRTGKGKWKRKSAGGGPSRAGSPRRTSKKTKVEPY

[3] = biological target: T3, UHRF1_(TTD-RING) (residues 138-806) (human), Q96T88
T3 chain: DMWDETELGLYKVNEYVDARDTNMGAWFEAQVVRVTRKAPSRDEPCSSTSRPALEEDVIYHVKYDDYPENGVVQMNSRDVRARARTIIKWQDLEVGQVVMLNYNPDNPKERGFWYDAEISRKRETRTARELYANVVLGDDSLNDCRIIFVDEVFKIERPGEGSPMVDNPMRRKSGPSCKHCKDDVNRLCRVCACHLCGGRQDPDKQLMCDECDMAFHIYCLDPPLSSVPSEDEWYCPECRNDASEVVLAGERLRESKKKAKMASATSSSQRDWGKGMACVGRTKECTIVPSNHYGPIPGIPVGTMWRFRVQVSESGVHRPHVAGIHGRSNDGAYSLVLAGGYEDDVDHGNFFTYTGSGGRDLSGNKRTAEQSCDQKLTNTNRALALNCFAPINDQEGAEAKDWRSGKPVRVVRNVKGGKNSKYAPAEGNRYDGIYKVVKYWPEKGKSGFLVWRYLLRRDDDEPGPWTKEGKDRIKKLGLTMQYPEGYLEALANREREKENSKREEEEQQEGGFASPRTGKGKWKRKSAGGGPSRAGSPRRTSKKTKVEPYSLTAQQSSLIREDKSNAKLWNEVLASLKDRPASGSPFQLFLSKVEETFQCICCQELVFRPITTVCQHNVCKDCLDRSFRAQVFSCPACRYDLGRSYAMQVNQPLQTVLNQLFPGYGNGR

[4] = biological target: T4, UHRF1_(647-678) (human), Q96T88
T4 chain: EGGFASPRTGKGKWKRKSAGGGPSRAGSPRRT

[5] = biological target: T5, UHRF1_(SRA-RING) (residues 419-806) (human), Q96T88
T5 chain: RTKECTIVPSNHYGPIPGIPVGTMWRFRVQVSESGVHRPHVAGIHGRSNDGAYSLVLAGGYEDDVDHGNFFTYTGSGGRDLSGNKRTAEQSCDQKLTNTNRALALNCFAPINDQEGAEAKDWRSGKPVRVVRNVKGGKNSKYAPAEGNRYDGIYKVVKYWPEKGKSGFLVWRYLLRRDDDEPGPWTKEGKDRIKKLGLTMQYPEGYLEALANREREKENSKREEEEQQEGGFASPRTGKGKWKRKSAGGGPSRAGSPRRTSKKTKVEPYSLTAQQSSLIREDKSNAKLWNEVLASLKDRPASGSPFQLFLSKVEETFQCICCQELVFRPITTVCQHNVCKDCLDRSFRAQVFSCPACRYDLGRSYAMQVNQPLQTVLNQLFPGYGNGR

B1: USP7 UBL1-2 (first two UBL domains of USP7) (domain or fragment)
chain: EAHLYMQVQIVAEDQFCGHQGNDMYDEEKVKYTVFKVLKNSSLAEFVQSLSQTMGFPQDQIRLWPMQARSNGTKRPAMLDNEADGNKTMIELSDNENPWTIFLETVDPELAASGATLPKFDKDHDVMLFLKMYDPKTRSLNYCGHIYTPISCKIRDLLPVMCDRAGFIQDTSLILYEEVKPNLTERIQDYDVSLDKALDELMDGDIIVFQKDDPENDNSELPTAKEYFRDLYH
modifications: not checked
fold reduction of binding affinity against wild type [1]: 38 fold | Kd [2]: 1.42 µM | Kd [3]: 27.2 µM | Kd [4]: 1.52 µM | Kd [5]: 1.3 µM
